Reference: paper PMC1914068

Molecular target: LexA-TAP-Vpr (yeast two-hybrid bait) (HIV-1) (UniProt P05928)
Assay: two-hybrid; LexA baits (pEG202) and B42 preys (pJG4-5) in S. cerevisiae EGY48; β-galactosidase activity by the o-nitrophenyl-β-D-galactopyranoside method

**Q.** For “Vpr as yeast two-hybrid fusion (LexA-Vpr bait and B42-Vpr prey) (from UniProt P05928 1-96) (natural protein)”, which fold weaker than dimerization of wild-type Vpr (β-galactosidase activity) is on record?
**A.** 3 fold
